In PMC12432402 (2025):
Ends that are not written are not given here. * marks the point of attachment. FITC = O=C1OC2(c3ccc(O)cc3Oc3cc(O)ccc32)c2ccc(NC(=S)*)cc21

Molecular target: ALFA‐tag binder 4A

{FITC}-SRLEEELRRRLTE [N‐terminally FITC‐labeled ALFA‐tag]
Kd: 222 µM
